Laboratory results reported in the RNAGym collection of RNA variant scans (doi:10.7554/elife.80360).

B1: Hairpin Ribozyme (parent)
chain: GUCCUCUUUCACGUGCGCGUGAAAGAGAGAAGUGAACCAGAGAAACACACGUUGUGGUAUAUUACCUGGUA

Variants of: B1
Experiment: self-cleavage, relative activity (ratio to wild type); higher = more cleavage; co-transcriptional

| Variant | self-cleavage |
| --- | --- |
| G15A A23U | 0.846 |
| G15A G40C | 0.112 |
| G15A G40A | 0.306 |
| U14G G17U | 0.513 |
| U14G G17C | 0.415 |
| G15C U63C | 0.13 |
| C16A G34C | 1.44 |
| C16A A61U | 0.226 |
| U14G G19U | 0.893 |
| G15C A28U | 0.74 |
| U14C G29C | 0.17 |
| U14C U52G | 0.512 |
| U14C U52A | 1.03 |
| G15C C37U | 0.592 |
| G15C C37A | 0.316 |
| U14C G42U | 0.365 |
| U14C G42C | 0.403 |
| U14C G42A | 0.154 |
| U14C G21U | 0.702 |
| G15C U53G | 0.695 |
| G15C U53C | 1.02 |
| G15A G57A | 0.167 |
| G15A G57C | 0.101 |
| U14G G25A | 0.384 |

| Variant | self-cleavage |
| --- | --- |
| C16A A47G | 0.197 |
| C16A A26G | 0.911 |
| U14G G51A | 0.989 |
| G15A U52A | 0.863 |
| U14G A24U | 0.653 |
| G15U A71C | 1.53 |
| U14G C38A | 0.17 |
| U14G C38U | 0.345 |
| U14G A30C | 0.129 |
| U14G G21C | 0.342 |
| U14G G21A | 0.686 |
| G15C A35C | 0.628 |
| G15C A35U | 0.703 |
| G15U A45U | 0.221 |
| U14G A36U | 0.311 |
| C16A A30U | 0.154 |
| C16A A30C | 0.134 |
| G15A C46U | 0.147 |
| C16A G27A | 0.36 |
| U14C C16U | 0.728 |
| U14C G19C | 0.79 |
| U14C G19U | 0.88 |
| G15A C18A | 1.09 |
| C16A G25U | 0.589 |

| Variant | self-cleavage |
| --- | --- |
| G15U U58C | 0.889 |
| G15C G69U | 0.276 |
| U14G U62A | 0.209 |
| U14C U60A | 0.795 |
| G15U G69U | 0.176 |
| U14G A31G | 0.693 |
| C16A G56A | 0.0316 |
| G15A A39G | 0.287 |
| U14G C66G | 0.173 |
| U14G C66U | 0.217 |
| G15C C65G | 0.369 |
| U14C A59G | 0.0434 |
| U14C A59U | 0.081 |
| U14G U60G | 0.58 |
| U14G U60A | 0.641 |
| G15A A30C | 0.141 |
| G15A A30U | 0.109 |
| G15U C16U | 0.937 |
| G15U A43C | 0.195 |
| U14G A64U | 0.07 |
| C16A A71U | 0.776 |
| C16A A44C | 0.229 |
| G15U A26G | 0.895 |
| U14G A71C | 1.11 |

| Variant | self-cleavage |
| --- | --- |
| U14G A71G | 0.883 |
| G15C U62G | 0.134 |
| U14C A44G | 0.155 |
| G15U G68C | 0.137 |
| G15U G29C | 0.125 |
| G15U C50G | 0.353 |
| C16A A35U | 0.789 |
| C16A A35C | 1.26 |
| G15C G42A | 0.0806 |
| U14G A47C | 0.218 |
| C16A G42U | 0.276 |
| G15A U55G | 0.215 |
| G15A U55A | 0.146 |
| G15C C48U | 0.112 |
| C16A G69A | 0.308 |
| C16A C48U | 0.0945 |
| G15A U53C | 0.907 |
| C16A A49G | 0.389 |
| C16A A49U | 0.206 |
| C16A C18A | 1.14 |
| G15C A44U | 0.18 |
| G15C A44C | 0.0713 |
| G15C G40A | 0.315 |
| C16A G68U | 0.181 |

| Variant | self-cleavage |
| --- | --- |
| C16A G68C | 0.176 |
| U14G U63G | 0.153 |
| U14G U63C | 0.175 |
| G15U G32A | 0.0947 |
| G15U G32U | 0.144 |
| G15U U60C | 1.01 |
| G15U C66A | 0.367 |
| C16A U58A | 0.597 |
| G15A A64G | 0.528 |
| C16A G54A | 0.388 |
| G15C U52G | 0.812 |
| U14C G15U | 0.926 |
| U14C G15C | 0.932 |
| U14C G15A | 0.825 |
| U14G C16A | 0.681 |
| G15A U62C | 0.214 |
| U14G G56U | 0.122 |
| G15U U67A | 0.206 |
| U14G C65A | 1.05 |
| U14G A41C | 0.698 |
| G15C A39G | 0.304 |
| G15A G54C | 0.364 |
| G15A G54A | 0.572 |
| G15C G27C | 0.204 |

| Variant | self-cleavage |
| --- | --- |
| G15C G27U | 0.214 |
| G15U C65A | 1.15 |
| U14C A43G | 0.147 |
| U14C A43U | 0.094 |
| U14C A43C | 0.114 |
| U14C U20C | 1.03 |
| U14C U20G | 1.09 |
| U14C U20A | 0.774 |
| U14C C18A | 0.933 |
| U14C C18U | 0.868 |
| C16A C66G | 0.249 |
| G15A G17A | 0.87 |
| G15A A36U | 0.673 |
| G15C A61C | 0.0894 |
| U14G G27C | 0.0943 |
| U14G G34U | 1.11 |
| U14G A44G | 0.0802 |
| U14G A44C | 0.218 |
| G15C G32A | 0.263 |
| G15C G32U | 0.113 |
| G15C G32C | 0.0609 |
| G15A G25U | 0.573 |
| G15U A41G | 0.943 |
| G15C A23G | 1.05 |

| Variant | self-cleavage |
| --- | --- |
| G15C U20G | 0.828 |
| G15C U20C | 0.997 |
| U14G A45C | 0.243 |
| G15U G42C | 0.44 |
| G15C U70C | 0.965 |
| G15C U70G | 0.946 |
| G15C G57U | 0.282 |
| G15C U55G | 0.487 |
| G15C U55C | 0.276 |
| G15C U55A | 0.279 |
| C16A A28U | 0.611 |
| C16A A28G | 0.988 |
| C16A A28C | 0.569 |
| U14G A39G | 0.227 |
| G15A C65G | 0.326 |
| G15A C65U | 0.235 |
| U14C G32A | 0.0498 |
| G15A A35C | 0.806 |
| G15A A35U | 0.52 |
| U14C C37U | 0.376 |
| G15U U52A | 0.863 |
| G15U U52G | 0.94 |
| G15C C16G | 1.06 |
